This series is described as follows: melting temperature; melt of duplexes. The note with it: sodium 0.0675 M; strand 1 µM.
One may read the Tm as the temperature at the midpoint of the melting transition. Turning to “CGACGTGCTGTATGTGCTG+CAGCACATGTAGCACGTCG (((((((((..((((((((+))))))))..)))))))))”, the Tm was 53.3 °C.
To “CGACGTGCCAAATGTGCTG+CAGCACATGGCGCACGTCG ((((((((...((((((((+))))))))...))))))))” belongs 51.2 °C; to “CGACGTGCAATATGTGCTG+CAGCACATCCAGCACGTCG ((((((((...((((((((+))))))))...))))))))”, 48.1 °C; to “CGACGTGCTTAATGTGCTG+CAGCACATTTGGCACGTCG ((((((((..(((((((((+)))))))))..))))))))”, 53.4 °C.
With “CGACGTGCTCGATGTGCTG+CAGCACATGGAGCACGTCG ((((((((((.((((((((+)))))))).))))))))))”, the Tm is 59.3 °C.
With “CGACGTGCCTGATGTGCTG+CAGCACATACCGCACGTCG ((((((((...((((((((+))))))))...))))))))” the figure was 48.1 °C; with “CGACGTGCGTAATGTGCTG+CAGCACATATAGCACGTCG ((((((((...((((((((+))))))))...))))))))”, 54.5 °C; with “CGACGTGCACCATGTGCTG+CAGCACATCAGGCACGTCG ((((((((...((((((((+))))))))...))))))))”, 42.9 °C.
To “CGACGTGCGGAATGTGCTG+CAGCACATAACGCACGTCG (((((((((..((((((((+))))))))..)))))))))” belongs 58.6 °C; to “CGACGTGCCTAATGTGCTG+CAGCACATGGTGCACGTCG ((((((((...((((((((+))))))))...))))))))”, 48.3 °C.
To “CGACGTGCGTCATGTGCTG+CAGCACATGCGGCACGTCG ((((((((..(((((((((+)))))))))..))))))))” belongs 54.4 °C; to “CGACGTGCACGATGTGCTG+CAGCACATGCCGCACGTCG ((((((((...((((((((+))))))))...))))))))”, 44.4 °C.
Regarding “CGACGTGCTCTATGTGCTG+CAGCACATTCCGCACGTCG ((((((((...((((((((+))))))))...))))))))”, the Tm is 46.7 °C.
To “CGACGTGCCACATGTGCTG+CAGCACATCGGGCACGTCG (((((((((..((((((((+))))))))..)))))))))” belongs 53.9 °C.
Turning to “CGACGTGCTCAATGTGCTG+CAGCACATTGTGCACGTCG ((((((((.((((((((((+)))))))))).))))))))”, the Tm was found to be 56.7 °C.
With “CGACGTGCTCCATGTGCTG+CAGCACATTTCGCACGTCG ((((((((...((((((((+))))))))...))))))))” the figure was 45.7 °C.
Consider “CGACGTGCATGATGTGCTG+CAGCACATTGTGCACGTCG (((((((((..((((((((+))))))))..)))))))))”, for which the Tm was 53.2 °C.
To “CGACGTGCAGTATGTGCTG+CAGCACATAGCGCACGTCG ((((((((..(((((((((+)))))))))..))))))))” belongs 51.7 °C.
For the substance “CGACGTGCCTTATGTGCTG+CAGCACATTAGGCACGTCG ((((((((((.((((((((+)))))))).))))))))))”, the Tm is 58 °C.
With “CGACGTGCCTGATGTGCTG+CAGCACATGCAGCACGTCG ((((((((...((((((((+))))))))...))))))))” the figure was 50.4 °C.
With “CGACGTGCGCCATGTGCTG+CAGCACATATTGCACGTCG ((((((((...((((((((+))))))))...))))))))”, the Tm is 47.3 °C.
To “CGACGTGCCCCATGTGCTG+CAGCACATCTTGCACGTCG ((((((((...((((((((+))))))))...))))))))” belongs 46.7 °C; to “CGACGTGCCTAATGTGCTG+CAGCACATTGAGCACGTCG ((((((((..(((((((((+)))))))))..))))))))”, 52.7 °C; to “CGACGTGCTGGATGTGCTG+CAGCACATCTTGCACGTCG ((((((((..(((((((((+)))))))))..))))))))”, 56.6 °C.
For “CGACGTGCTAAATGTGCTG+CAGCACATAGAGCACGTCG (((((((((..((((((((+))))))))..)))))))))”, the Tm stood at 52.9 °C.
With “CGACGTGCAGGATGTGCTG+CAGCACATCCGGCACGTCG ((((((((.((((((((((+)))))))))).))))))))” the figure was 62.2 °C; with “CGACGTGCAGTATGTGCTG+CAGCACATCGCGCACGTCG ((((((((...((((((((+))))))))...))))))))”, 49.9 °C; with “CGACGTGCATTATGTGCTG+CAGCACATCAAGCACGTCG ((((((((.(.((((((((+)))))))).).))))))))”, 48.1 °C.
To “CGACGTGCCATATGTGCTG+CAGCACATCCCGCACGTCG ((((((((...((((((((+))))))))...))))))))” belongs 46.9 °C; to “CGACGTGCACGATGTGCTG+CAGCACATCTTGCACGTCG (((((((((.(((((((((+))))))))).)))))))))”, 55.7 °C.
With “CGACGTGCGTCATGTGCTG+CAGCACATATTGCACGTCG ((((((((...((((((((+))))))))...))))))))” the figure was 49.2 °C; with “CGACGTGCCCAATGTGCTG+CAGCACATCAGGCACGTCG (((((((((..((((((((+))))))))..)))))))))”, 53.9 °C; with “CGACGTGCTGAATGTGCTG+CAGCACATTCTGCACGTCG ((((((((.((((((((((+)))))))))).))))))))”, 59.2 °C.
Take “CGACGTGCAGGATGTGCTG+CAGCACATGAAGCACGTCG ((((((((...((((((((+))))))))...))))))))”: the Tm turned out to be 50.3 °C.
With “CGACGTGCACGATGTGCTG+CAGCACATATCGCACGTCG ((((((((...((((((((+))))))))...))))))))” the figure was 44.2 °C; with “CGACGTGCGGAATGTGCTG+CAGCACATGTAGCACGTCG ((((((((...((((((((+))))))))...))))))))”, 60.4 °C; with “CGACGTGCAGGATGTGCTG+CAGCACATAGCGCACGTCG ((((((((...((((((((+))))))))...))))))))”, 49.6 °C.
To “CGACGTGCCCGATGTGCTG+CAGCACATCTCGCACGTCG ((((((((..(((((((((+)))))))))..))))))))” belongs 51.6 °C; to “CGACGTGCCCAATGTGCTG+CAGCACATGCCGCACGTCG ((((((((...((((((((+))))))))...))))))))”, 48.9 °C.
To “CGACGTGCTATATGTGCTG+CAGCACATATAGCACGTCG (((((((((((((((((((+)))))))))))))))))))” belongs 61.3 °C; to “CGACGTGCGTCATGTGCTG+CAGCACATGGCGCACGTCG (((((((((.(((((((((+))))))))).)))))))))”, 63.5 °C.
With “CGACGTGCCTCATGTGCTG+CAGCACATATTGCACGTCG ((((((((...((((((((+))))))))...))))))))”, the Tm stood at 46.7 °C.
To “CGACGTGCGGCATGTGCTG+CAGCACATGGCGCACGTCG (((((((((.(((((((((+))))))))).)))))))))” belongs 65.9 °C.
Consider “CGACGTGCCCGATGTGCTG+CAGCACATCTAGCACGTCG ((((((((..(((((((((+)))))))))..))))))))”, for which the Tm amounted to 52.9 °C.
To “CGACGTGCATAATGTGCTG+CAGCACATGACGCACGTCG ((((((((.(.((((((((+)))))))).).))))))))” belongs 50.5 °C; to “CGACGTGCAACATGTGCTG+CAGCACATCGCGCACGTCG ((((((((...((((((((+))))))))...))))))))”, 47.7 °C.
With “CGACGTGCTTCATGTGCTG+CAGCACATTCGGCACGTCG ((((((((...((((((((+))))))))...))))))))” the figure was 48.1 °C; with “CGACGTGCGCAATGTGCTG+CAGCACATGCAGCACGTCG ((((((((...((((((((+))))))))...))))))))”, 57.9 °C; with “CGACGTGCCCCATGTGCTG+CAGCACATCACGCACGTCG ((((((((...((((((((+))))))))...))))))))”, 45.7 °C.
On to “CGACGTGCAGTATGTGCTG+CAGCACATCGTGCACGTCG (((((((((..((((((((+))))))))..)))))))))”, for which the Tm worked out at 48.2 °C.
To “CGACGTGCCCCATGTGCTG+CAGCACATAAGGCACGTCG (((((((((..((((((((+))))))))..)))))))))” belongs 52.7 °C; to “CGACGTGCGATATGTGCTG+CAGCACATGCGGCACGTCG ((((((((...((((((((+))))))))...))))))))”, 50 °C.
With “CGACGTGCTCCATGTGCTG+CAGCACATCTAGCACGTCG (((((((((..((((((((+))))))))..)))))))))” the figure was 49.5 °C; with “CGACGTGCTAGATGTGCTG+CAGCACATCGGGCACGTCG ((((((((..(((((((((+)))))))))..))))))))”, 57 °C; with “CGACGTGCACCATGTGCTG+CAGCACATTCAGCACGTCG ((((((((...((((((((+))))))))...))))))))”, 42.6 °C.
With “CGACGTGCGGGATGTGCTG+CAGCACATTTAGCACGTCG ((((((((...((((((((+))))))))...))))))))” the figure was 53.4 °C; with “CGACGTGCTACATGTGCTG+CAGCACATAGAGCACGTCG (((((((((..((((((((+))))))))..)))))))))”, 52.5 °C.
On to “CGACGTGCCTTATGTGCTG+CAGCACATCTCGCACGTCG ((((((((...((((((((+))))))))...))))))))”, for which the Tm is 46.6 °C.
“CGACGTGCTTGATGTGCTG+CAGCACATGGGGCACGTCG ((((((((...((((((((+))))))))...))))))))”: the Tm was found to be 50.7 °C.
To “CGACGTGCGCCATGTGCTG+CAGCACATCGTGCACGTCG ((((((((.(.((((((((+)))))))).).))))))))” belongs 47.7 °C; to “CGACGTGCCCTATGTGCTG+CAGCACATGATGCACGTCG ((((((((...((((((((+))))))))...))))))))”, 48.6 °C.
To “CGACGTGCGATATGTGCTG+CAGCACATTACGCACGTCG (((((((((..((((((((+))))))))..)))))))))” belongs 54.7 °C; to “CGACGTGCCGCATGTGCTG+CAGCACATGCAGCACGTCG ((((((((.((((((((((+)))))))))).))))))))”, 60 °C.
With “CGACGTGCTCGATGTGCTG+CAGCACATCGCGCACGTCG ((((((((.((((((((((+)))))))))).))))))))” the figure was 59.6 °C; with “CGACGTGCCGTATGTGCTG+CAGCACATCTCGCACGTCG ((((((((...((((((((+))))))))...))))))))”, 48.5 °C; with “CGACGTGCACTATGTGCTG+CAGCACATAATGCACGTCG (((((((((.(((((((((+))))))))).)))))))))”, 51.2 °C.

The values are drawn from the array DNA melting data of Ke et al..
